T1: human CCL17 (human, UniProt Q92583 24-94)
T1 construct: Biotinylated in the Fab ELISAs; also called huCCL17; Bt-huCCL17
T1 sequence: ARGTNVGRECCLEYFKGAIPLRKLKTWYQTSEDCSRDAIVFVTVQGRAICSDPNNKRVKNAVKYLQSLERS

T2: cyno CCL17 (Macaca fascicularis (cyno), UniProt Q8HYP9 24-94 (rhesus entry))
T2 sequence: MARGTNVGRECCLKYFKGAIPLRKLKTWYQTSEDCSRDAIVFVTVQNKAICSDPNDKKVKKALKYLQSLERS


Experiments:
[1] = molecular target: T1, human CCL17; experiment: solution equilibrium affinity (MSD-SEA), TBST, 48 h at 4 °C
Procedure: (§1) Equal volumes of the anti-hCCL17 mAbs at 40 pM or 200 pM were added to each chemokine dilution to obtain mixtures containing the serial dilution of chemokines starting at a final concentration of […] and a constant concentration (20 pM or 100 pM) of anti-CCL17 antibody. The mixtures were prepared in duplicate and incubated at 4° C. for 48 hours to reach equilibrium. The free antibody was detected using a SECTOR Imager 6000 (Meso Scale Discovery) instrument. The resulting binding curves were fitted to obtain the dissociation equilibrium constant (KD) using the GraphPad Prism software (v 5.01) using a 1:1 binding model to perform nonlinear least-square regression analysis of the data.

[2] = molecular target: T2, cyno CCL17; experiment: cell-based or functional assay
[3] = molecular target: T1, human CCL17; experiment: cell-based or functional assay
[4] = molecular target: T1, human CCL17; experiment: MSD-SEA; affinity for human CCL17 against that for cyno CCL17
Procedure: as §1

[5] = molecular target: T2, cyno CCL17; experiment: solution equilibrium affinity (MSD-SEA), TBST, 48 h at 4 °C
Procedure: as §1

[6] = molecular target: T2, cyno CCL17; experiment: solution equilibrium affinity (MSD-SEA), IgG1
Procedure: as §1

[7] = molecular target: T1, human CCL17; experiment: solution equilibrium affinity (MSD-SEA), IgG1
Procedure: as §1

[8] = molecular target: T1, human CCL17; experiment: not stated in the legend (affinities by MSD-SEA in Examples 3 and 4)

| Kd [1] | IC50 (nM), calcium flux assay in CCRF-CEM cells, 5 ng/ml cyno CCL17 [2] | IC50 (nM), calcium flux assay in CCRF-CEM cells, 10 ng/ml human CCL17 [3] | Fold binding human/cyno CCL17 [4] | Kd [5] | Kd [6] | Kd [7] | Kd [8] | Binder |
| --- | --- | --- | --- | --- | --- | --- | --- | --- |
| 0.167 nM | 0.34 nM | 0.483 nM | 2.3 fold | 0.384 nM | – | – | – | C17B242 (antibody, V domains shown, Full IgG1, kappa) VH: EVQLVQSGAEVKKPGESLKISCKGSGYSFTSYWIGWVRQMPGKGLEWMGIIDPSDSDTRYSPSFQGQVTISADKSISTAYLQWSSLKASDTAMYYCARVGPADVWDSFDYWGQGTLVTVSS VL: DIVMTQSPDSLAVSLGERATINCKSSQSVLFSHDNLNTLAWYQQKPGQPPKLLIYHASTRESGVPDRFSGSGSGTDFTLTISSLQAEDVAVYYCQQYYAVPQTFGQGTKVEIK |
| – | – | – | 171 fold | – | 29.9 nM | 175 pM | – | C17B295 (antibody, IgG1, V domains shown, Expressed as IgG1; Heavy chain D100bE (Kabat) paired with the light chain of C17B258) VH: EVQLVQSGAEVKKPGESLKISCKGSGYSFTSYWIGWVRQMPGKGLEWMGIIDPSDSDTRYSPSFQGQVTISADKSISTAYLQWSSLKASDTAMYYCARVGPADVWESFDYWGQGTLVTVSS VL: DIVMTQSPDSLAVSLGERATINCKSSQSVLLSFDNINKLAWYQQKPGQPPKLLIYDASTRESGVPDRFSGSGSGTDFTLTISSLQAEDVAVYYCQQFYSVPSTFGQGTKVEIK |
| – | – | – | 756 fold | – | 0.0756 nM | 0.1 pM | – | C17B263 (antibody, IgG1, V domains shown, Expressed as IgG1; Light chain N50T (Kabat) variant of C17B234) VH: EVQLVQSGAEVKKPGESLKISCKGSGYSFTSYWIGWVRQMPGKGLEWMGIIDPSDSDTRYSPSFQGQVTISADKSISTAYLQWSSLKASDTAMYYCARVGPADVWDSFDYWGQGTLVTVSS VL: DIVMTQSPDSLAVSLGERATINCKSSQSVLLSFDNINKLAWYQQKPGQPPKLLIYTASTRESGVPDRFSGSGSGTDFTLTISSLQAEDVAVYYCQQFYSVPSTFGQGTKVEIK |
| 0.05 nM | 0.339 nM | 0.456 nM | 11.7 fold | 0.583 nM | – | – | ≤ 100 nM | C17B241 (antibody, V domains shown, Full IgG1, kappa) VH: EVQLVQSGAEVKKPGESLKISCKGSGYSFTSYWIGWVRQMPGKGLEWMGIIDPSDSDTRYSPSFQGQVTISADKSISTAYLQWSSLKASDTAMYYCARVGPADVWDSFDYWGQGTLVTVSS VL: DIVMTQSPDSLAVSLGERATINCKSSQSVLNSFTNNNALAWYQQKPGQPPKLLIYEASTRESGVPDRFSGSGSGTDFTLTISSLQAEDVAVYYCQQTNSIPLTFGQGTKVEIK |
| 0.657 nM | 0.549 nM | 0.882 nM | 4.7 fold | 3.07 nM | – | – | – | C17B237 (antibody, V domains shown, Full IgG1, kappa) VH: EVQLVQSGAEVKKPGESLKISCKGSGYSFTSYWIGWVRQMPGKGLEWMGIIDPSDSDTRYSPSFQGQVTISADKSISTAYLQWSSLKASDTAMYYCARVGPADVWDSFDYWGQGTLVTVSS VL: not shown |
| 0.028 nM | 0.31 nM | 0.231 nM | 24.2 fold | 0.677 nM | – | – | ≤ 100 nM | C17B243 (antibody, V domains shown, Full IgG1, kappa) VH: EVQLVQSGAEVKKPGESLKISCKGSGYSFTSYWIGWVRQMPGKGLEWMGIIDPSDSDTRYSPSFQGQVTISADKSISTAYLQWSSLKASDTAMYYCARVGPADVWDSFDYWGQGTLVTVSS VL: DIVMTQSPDSLAVSLGERATINCKSSQSVLNSFDNKNDLAWYQQKPGQPPKLLIYEASTRESGVPDRFSGSGSGTDFTLTISSLQAEDVAVYYCQQHWQTPLTFGQGTKVEIK |
| 0.072 nM | 0.919 nM | 0.558 nM | 132 fold | 9.5 nM | – | – | ≤ 100 nM | C17B235 (antibody, V domains shown, Full IgG1, kappa) VH: EVQLVQSGAEVKKPGESLKISCKGSGYSFTSYWIGWVRQMPGKGLEWMGIIDPSDSDTRYSPSFQGQVTISADKSISTAYLQWSSLKASDTAMYYCARVGPADVWDSFDYWGQGTLVTVSS VL: not shown |
| – | – | – | 416 fold | – | 0.0416 nM | 0.1 pM | – | C17B258 (antibody, IgG1, V domains shown, Expressed as IgG1; Light chain N50D (Kabat) variant of C17B234) VH: EVQLVQSGAEVKKPGESLKISCKGSGYSFTSYWIGWVRQMPGKGLEWMGIIDPSDSDTRYSPSFQGQVTISADKSISTAYLQWSSLKASDTAMYYCARVGPADVWDSFDYWGQGTLVTVSS VL: DIVMTQSPDSLAVSLGERATINCKSSQSVLLSFDNINKLAWYQQKPGQPPKLLIYDASTRESGVPDRFSGSGSGTDFTLTISSLQAEDVAVYYCQQFYSVPSTFGQGTKVEIK |

The next lines start with the binder.

| Binder | Kd [1] | IC50 (nM), calcium flux assay in CCRF-CEM cells, 5 ng/ml cyno CCL17 [2] | IC50 (nM), calcium flux assay in CCRF-CEM cells, 10 ng/ml human CCL17 [3] | Fold binding human/cyno CCL17 [4] | Kd [5] | Kd [6] | Kd [7] | Kd [8] |
| --- | --- | --- | --- | --- | --- | --- | --- | --- |
| C17F24 (parent) (antibody, V domains shown) VH: EVQLVQSGAEVKKPGESLKISCKGSGYSFTSYWIGWVRQMPGKGLEWMGIIDPSDSDTRYSPSFQGQVTISADKSISTAYLQWSSLKASDTAMYYCARVGPADVWDSFDYWGQGTLVTVSS VL: not shown | 1 nM | – | – | – | – | – | – | – |
| C17B260 (antibody, IgG1, V domains shown, Expressed as IgG1; Light chain N50G (Kabat) variant of C17B234) VH: EVQLVQSGAEVKKPGESLKISCKGSGYSFTSYWIGWVRQMPGKGLEWMGIIDPSDSDTRYSPSFQGQVTISADKSISTAYLQWSSLKASDTAMYYCARVGPADVWDSFDYWGQGTLVTVSS VL: DIVMTQSPDSLAVSLGERATINCKSSQSVLLSFDNINKLAWYQQKPGQPPKLLIYGASTRESGVPDRFSGSGSGTDFTLTISSLQAEDVAVYYCQQFYSVPSTFGQGTKVEIK | – | – | – | 72.8 fold | – | 0.0364 nM | 0.5 pM | – |
| C17B239 (antibody, V domains shown, Full IgG1, kappa) VH: EVQLVQSGAEVKKPGESLKISCKGSGYSFTSYWIGWVRQMPGKGLEWMGIIDPSDSDTRYSPSFQGQVTISADKSISTAYLQWSSLKASDTAMYYCARVGPADVWDSFDYWGQGTLVTVSS VL: DIVMTQSPDSLAVSLGERATINCKSSQSVLSSFTNTNTLAWYQQKPGQPPKLLIYHASTRESGVPDRFSGSGSGTDFTLTISSLQAEDVAVYYCQQYLIYPSTFGQGTKVEIK | 0.092 nM | 0.43 nM | 0.427 nM | 6.8 fold | 0.63 nM | – | – | ≤ 100 nM |
| C17B244 (antibody, V domains shown, Full IgG1, kappa) VH: EVQLVQSGAEVKKPGESLKISCKGSGYSFTSYWIGWVRQMPGKGLEWMGIIDPSDSDTRYSPSFQGQVTISADKSISTAYLQWSSLKASDTAMYYCARVGPADVWDSFDYWGQGTLVTVSS VL: DIVMTQSPDSLAVSLGERATINCKSSQSVLSSITNVNDLAWYQQKPGQPPKLLIYTASTRESGVPDRFSGSGSGTDFTLTISSLQAEDVAVYYCQQYYHDPFTFGQGTKVEIK | 0.033 nM | 0.311 nM | – | 17.1 fold | 0.565 nM | – | – | ≤ 100 nM |
| C17B257 (antibody, IgG1, V domains shown, Expressed as IgG1; Light chain N50A (Kabat) variant of C17B234) VH: EVQLVQSGAEVKKPGESLKISCKGSGYSFTSYWIGWVRQMPGKGLEWMGIIDPSDSDTRYSPSFQGQVTISADKSISTAYLQWSSLKASDTAMYYCARVGPADVWDSFDYWGQGTLVTVSS VL: DIVMTQSPDSLAVSLGERATINCKSSQSVLLSFDNINKLAWYQQKPGQPPKLLIYAASTRESGVPDRFSGSGSGTDFTLTISSLQAEDVAVYYCQQFYSVPSTFGQGTKVEIK | – | – | – | 656 fold | – | 0.0656 nM | 0.1 pM | – |
| C17B240 (antibody, V domains shown, Full IgG1, kappa) VH: EVQLVQSGAEVKKPGESLKISCKGSGYSFTSYWIGWVRQMPGKGLEWMGIIDPSDSDTRYSPSFQGQVTISADKSISTAYLQWSSLKASDTAMYYCARVGPADVWDSFDYWGQGTLVTVSS VL: DIVMTQSPDSLAVSLGERATINCKSSQSVLYSHVNYNALAWYQQKPGQPPKLLIYNASTRESGVPDRFSGSGSGTDFTLTISSLQAEDVAVYYCQQYYTLPATFGQGTKVEIK | 0.083 nM | 0.308 nM | 0.405 nM | 55.4 fold | 4.6 nM | – | – | ≤ 100 nM |
| C17B238 (antibody, V domains shown, Full IgG1, kappa) VH: EVQLVQSGAEVKKPGESLKISCKGSGYSFTSYWIGWVRQMPGKGLEWMGIIDPSDSDTRYSPSFQGQVTISADKSISTAYLQWSSLKASDTAMYYCARVGPADVWDSFDYWGQGTLVTVSS VL: DIVMTQSPDSLAVSLGERATINCKSSQSVLISAFNQNPLAWYQQKPGQPPKLLIYDASTRESGVPDRFSGSGSGTDFTLTISSLQAEDVAVYYCQQYQFIPFTFGQGTKVEIK | 0.115 nM | 0.348 nM | 0.387 nM | 12.7 fold | 1.46 nM | – | – | – |

Source: patent US20220348647A1 (published 2022)
